# From patent publication US20150376261A1 (VIB VZW, published 2015)
# B1: Nb33 (VHH)
# VHH: QVQLQESGGGLVRPGGSRRLSCVDSERTSYPMGWFRRAPGKEREFVASITWSGIDPTYADSVADRFTISRDVANNTLYLQMNSLKHEDTAVYYCAARAPVGQSSSPYDYDYWGQGTQVTVSS
# B2: Nb69 (VHH)
# VHH: QVQLQESGGGLVQAGGSLRLSCTASGLTLSNYAMGWFRQAPGKEREFVAADTWNGNTYHQDSVKGRFTISRDNAKNTVYLQMNYLKPEDTAVYYCAARGSRRSAYYSSSDYTYRGQGTQVTVSS
# notes: Described as specific for the rat muscarinic receptor M3; Used as the mock fusion partner and as an exogenously added control; also called CA5669; mock Single-domain antibody
# B3: Nb10 (VHH)
# VHH: QVQLQESGGGLVQPGGSLRLSCAASGSFRSIVSMAWYRQAPGKQRELVASSNSGGSTNYADSVKGRFTISRDNAKNTVYLQMNSLKPEDTAVYWCNVQNRLPGFDAFSGRSIAETYWGQGTQVTVSS
# notes: also called CA4910; irrelevant Single-domain antibody
# Columns and labels:
# [1] = biological target: T1, human mu-opioid receptor (hMor1) (human, UniProt P35372 6-360); assay: cell-based or functional assay
# β2AR365N = biological target: T2, β2AR365N (human, UniProt P07550 2-365); assay: not described
# T2 construct: also called non-fused β2AR365N; human β2 adrenergic receptor Gly2 to Gly365, N187E
# [2] = biological target: T1, human mu-opioid receptor (hMor1); assay: not described
# T1 sequence (P35372 6-360, tags or fused parts left off): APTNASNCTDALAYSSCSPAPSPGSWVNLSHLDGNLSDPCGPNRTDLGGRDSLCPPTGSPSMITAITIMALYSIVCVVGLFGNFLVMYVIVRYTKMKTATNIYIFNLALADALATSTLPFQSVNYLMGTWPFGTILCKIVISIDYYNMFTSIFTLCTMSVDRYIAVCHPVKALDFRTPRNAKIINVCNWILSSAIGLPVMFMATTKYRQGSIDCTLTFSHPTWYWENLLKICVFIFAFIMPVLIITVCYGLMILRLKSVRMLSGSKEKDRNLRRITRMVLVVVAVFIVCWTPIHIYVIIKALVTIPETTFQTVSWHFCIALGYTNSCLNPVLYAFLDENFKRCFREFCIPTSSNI
binder,measurement,setting,value
B1,"IC50 ratio, Dmt1-Dalda: hMor1-34GS-Nb10 versus hMor1-34GS-Nb33 fusion ([3H]-diprenorphine competition, Sf9 membranes; Nb fused to the receptor)",[1],36 ratio
same,"IC50 ratio, KGOP01: hMor1-34GS-Nb10 versus hMor1-34GS-Nb33 fusion",[1],20 ratio
same,"IC50 ratio, naloxone: hMor1-34GS-Nb10 versus hMor1-34GS-Nb33 fusion",[1],2 ratio
B2,binding result,β2AR365N,no binding
B3,binding result,[2],no binding
